The record followed here is patent US5637476.

This data set deals with T1, SfiI modification methylase (M.SfiI) (Streptomyces fimbriatus) (UniProt O52513).
T1 sequence: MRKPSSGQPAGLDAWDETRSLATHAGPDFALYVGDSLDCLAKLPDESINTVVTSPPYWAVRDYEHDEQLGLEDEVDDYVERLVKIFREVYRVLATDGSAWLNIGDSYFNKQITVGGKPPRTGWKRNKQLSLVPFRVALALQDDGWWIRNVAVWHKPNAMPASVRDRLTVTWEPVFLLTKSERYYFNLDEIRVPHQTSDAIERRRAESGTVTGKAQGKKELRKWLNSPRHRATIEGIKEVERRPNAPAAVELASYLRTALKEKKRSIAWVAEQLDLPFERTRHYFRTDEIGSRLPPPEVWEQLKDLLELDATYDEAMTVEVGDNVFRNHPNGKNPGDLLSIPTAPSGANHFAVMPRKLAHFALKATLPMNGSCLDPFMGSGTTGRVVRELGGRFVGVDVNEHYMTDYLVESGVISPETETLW
Nature of the data set: inhibition. To be noted: protection from SfiI cleavage; 10 mM EDTA, 0.1 mM AdoMet, 37 C; 0.3M and 0.5M KCl fractions.

T4 DNA gave an activity of 2500 units/ml.
